Consider 23 sequences from the DeepSol protein solubility set.

The series in a line: soluble on expression in E. coli; label from the status in PepcDB or PDB records.
As to “AMGQTVTTPLSLTLGHWKDVERIAHNQSVDVKKRRWVTFCSAEWPTFNVGWPRDGTFNRDLITQVKIKVFSPGPHGHPDQVPYIVTWEALAFDPPPWVKP”, the “soluble on expression in E. coli” value is given as “soluble”.
On to “ANADNYKNVINRTGAPQYMKDYDYDDHQRFNPFFDLGAWHGHLLPDGPNTMGGFPGVALLTEEYINFMASNFDRLTVWQDGKKVDFTLEAYSIPGALVQKLTAKDVQVEMTLRFATPRTSLLETKITSNKPLDLVWDGELLEKLEAKEGKPLSDKTIAGEYPDYQRKISATRDGLKVTFGKVRATWDLLTSGESEYQVHKSLPVQTEINGNRFTSKAHINGSTTLYTTYSHLLTAQEVSKEQMQIRDILARPAFYLTASQQRWEEYLKKGLTNPDATPEQTRVAVKAIETLNGNWRSPGGAVKFNTVTPSVTGRWFSGNQTWPWDTWKQAFAMAHFNPDIAKENIRAVFSWQIQPGDSVRPQDVGFVPDLIAWNLSPERGGDGGNWNERNTKPSLAAWSVMEVYNVTQDKTWVAEMYPKLVAYHDWWLRNRDHNGNGVPEYGATRDKAHNTESGEMLFTVKKGDKEETQSGLNNYARVVEKGQYDSLEIPAQVAASWESGRDDAAVFGFIDKEQLDKYVANGGKRSDWTVKFAENRSQDGTLLGYSLLQESVDQASYMYSDNHYLAEMATILGKPEEAKRYRQLAQQLADYINTCMFDPTTQFYYDVRIEDKPLANGCAGKPIVERGKGPEGWSPLFNGAATQANADAVVKVMLDPKEFNTFVPLGTAALTNPAFGADIYWRGRVWVDQFWFGLKGMERYGYRDDALKLADTFFRHAKGLTADGPIQENYNPLTGAQQGAPNFSWSAAHLYMLYNDFFRKQ”, for which the “soluble on expression in E. coli” value is given as “soluble”.
As to “ANNGAHRDMDLNTFIASAEAIAPYLHSFVSAGWESAGNPAAQLLSALRPIGIEAEQAMFAATQGVNTHKGMIFILGLICGSVGWLKANQLKIDAQHIGETIRQACQFLVIDELKAKRDCEPETAGERIYRQYGLTGARGEAASGLAMVMQHALPAYQACLTKGASTEQALWHTLLVLMANNNDSNLVSRGGLAGLHFVQEQAQQLLAKGGFLYQEIEQALTALDSVLIEKHLS”, the “soluble on expression in E. coli” value is “not soluble”.
For “ANVEIYTKETCPYCHRAKALLSSKGVSFQELPIDGNAAKREEMIKRSGRTTVPQIFIDAQHIGGYDDLYALDARGGLDPLLK” the value was “soluble”; for “APFTLLYDLLHPYGFNRDQIREVATSLDNPPGASFFSSSHRLLRERDRLTVLPLSPKMEVPELFGLKIGDSFLDLPDGKQLSWQRGTPADLDLEGLRLPNTKLLLPLAFVESLQEELGVRRPQRGDHIHPYGMKGCKTVSRFFIDRHVPRSRREEAWLLCQGTEVVWIMGYAADRRFAIDELSDTEEYLLFSFGL”, “not soluble”; for “APTIPQGQGKVTFNNTVVDAPCSISQKSADQSIDFGQLSKSFLEAGGVSKPMDLDIELVNCDITAFKGGNGAKKGTVKLAFTGPIVNGHSDELDTNGGTGLAIVVQGAGKNVVFDGSEGDANTLKDGENVLHYTAVVKKSSAVGAAVTEGAFSAVANFNLTYQ”, “soluble”.
As for “APTSSNDTGKTVVAVTACPTGIAHTYMAAEKLQETANKLGVRIKVETNGSRGVENRLTDKEIAEADGVIIAADVQVDMPRFDGKHLIAKPVAAGIHKPEELIKEAISGNAPVYKAESGSEATEST”, the “soluble on expression in E. coli” value is given as “not soluble”.
Turning to “AQNSTVKINGLTLVQSSNQLNEAITGVTIDLKKAEIGKIVTLTVDDNKDQLTGLINEFIKQYNDTMTFLTNLTGYNNETKQGGVFQGDPQFRNLKLNLNKWATTPLANQEGPIRSLADLGIITNKQGLLEIKQDKFKTALDNHYKEIGALFAKTAKANDTGINVKSINSTVKSGTYDVVLTEFTPGVSMSGTIGGLSAISSDGITLTGSADLSGLSINVFSGSAGSRGQITVTDGIAVQLSSLLDAYIEIKGDLEQRKDQLNNQVKQLNKIQNEIDIRRKSIETRYLKQFTALDTLLSQLQS”, the “soluble on expression in E. coli” value is recorded as “soluble”.
On to “AQSVPPGDINTQPSQKIVFNAPYDDKHTYHIKITNAGGRRIGWAIKTTNMRRLSVDPPCGVLDPKEKVLMAVSCDTFNAATERLNNDRITIEWTNTPDGAAKQFRREWFQGDGMVRRKNLPIEYNL”, for which the “soluble on expression in E. coli” value is “soluble”.
The value for “ARLKHLEDEPGHEDEGKRPLFHFSAVERIARIGVPSMIQQSIVSISMLMMQGLVNSYGSVFIAGYTAATKIDSLAMMPNMNFSNAMSSYTAQNIGAGKIERVKDGYKANM” was “not soluble”; that for “ASPLMSRTPAFERAAALARAKSAALHIVAFDYVEGLAAAGLLNERALNEMRDGYLASHRQWLEQQAQLIRQSGVEVTTEVVWVMRPLDEIMAHVHEIKPSMVIKDIGHESWLTRAMFTSLDIRLLHDCPVPLHLVANVDH” was “not soluble”; that for “ATGTCGTTGGCAAAAGCGTCCTTGTGGACGGCGGCCAGTACACTGGTCAAGATTGGTGCCGGGTTACTGGTCGGTAAGTTGCTGGCGGTGTCATTTGGTCCGGCGGGGCTTGGGCTGGCGGCAAATTTCCGCCAGTTGATTACCGTGCTCGGCGTGCTTGCCGGGGCTGGCATCTTTAACGGTGTAACCAAATACGTTGCCCAGTACCATGATAATCCGCAACAGCTGCGCCGCGTGGTCGGCACTTCATCAGCGATGGTACTTGGTTTCTCTACGCTGATGGCGCTGGTTTTTGTGCTGGCAGCTGCGCCAATCAGCCAGGGATTGTTTGGTAATACCGACTATCAGGGGCTGGTGCGTTTAGTGGCGCTGGTGCAAATGGGGATCGCCTGGGGCAACCTGTTACTGGCGCTGATGAAAGGCTTTCGSGATGCCGCAGGTAATGCGTTATCGCTGATTGTCGGCAGCTTGATTGGCGTTCTCGCGTACTACGTCAGTTACCGTTTGGGCGGTTATGAAGGGGCGTTGCTGGGTCTGGCGCTGATTCCCGCGCTGGTGGTAATTCCTGCCGCCATCATGTTGATCAAACGTGGTGTCATCCCGTTAAGCTATCTGAAACCCAGCTGGGATAACGGTCTGGCAGGGCAGTTGAGCAAATTTACGCTCATGGCGTTGATTACGTCGGTGACCTTGCCTGTTGCTTACATCATGATGCGTAAACTGCTGGCGGCGCAGTATAGCTGGGATGAGGTGGGGATCTGGCAAGGGGTGAGCAGTATTTCCGATGCCTACCTGCAATTTATTACGGCATCGTTCAGCGTATATTTGCTGCCCACGTTGTCGCGGCTAACGGAAAAGCGCGATATCACCCGGGAAGTGGTTAAATCGCTGAAATTCGTCTTACCGGCAGTGGCGGCGGCGAGTTTTACCGTCTGGCTGCTGCGTGATTTTGCTATCTGGCTGCTGTTGTCGAATAAATTTACCGCTATGCGCGATCTCTTTGCCTGGCAGTTAGTGGGTGATGTGTTAAAAGTGGGCGCTTATGTCTTTGGTTATCTGGTGATCGCCAAAGCGTCACTGCGGTTTTATATTCTGGCGGAAGTCAGCCAGTTCACTTTATTGATGGTATTTGCCCACTGGCTAATCCCTGCGCATGGTGCACTGGGCGCGGCGCAGGCATATATGGCAACTTATATCGTCTATTTTTCTCTTTGTTGTGGCGTGTTTTTACTCTGGCGTAGGCGGGCATGA” was “not soluble”.
On to “AVGTPITISVPSLPYANSASEIVLSQLRDIGFDVRLESTEFPSVWLSKVYKAKDYDMSVVAHVEARDIPNLFGNPDYYLGFDDEQVRELLAQADSGDADSYVSTMKKVVNRIMDQAGADTLFNLPNIVVTQPDVSGVPTNLVADGLVVSNISRSED”, for which the “soluble on expression in E. coli” value is on record as “not soluble”.
Turning to “AVINHDAVPVWPQPEPADATQALAVRFKPQLDVVNGCQPYPAVDPQGNTSGGLKPSGSQAAACRDMSKAQVYSRSGTYNGYYAIMYSWYMPKDSPSTGIGHRHDWENVVVWLDNAASANIVALSASAHSGYKKSFPADKSYLDGITAKISYKSTWPLDHELGFTTSAGKQQPLIQWEQMTQAARDALESTDFGNANVPFKSNFQDKLVKAFFQ”, the “soluble on expression in E. coli” value is listed as “soluble”.
For “AVTKLVLVRHGESQWNKENRFTGWYDVDLSEKGVSEAKAAGKLLKEEGYSFDFAYTSVLKRAIHTLWNVLDELDQAWLPVEKSWKLNERHYGALQGLNKAETAEKYGDEQVKQWRRGFAVTPPELTKDDERYPGHDPRYAKLSEKELPLTESLALTIDRVIPYWNETILPRMKSGERVIIAAHGNSLRALVKYLDNMSEEEILELNIPTGVPLVYEFDENFKPLKRYYLGNADEIAAKAAAVANQGKAK” the value was “soluble”.
Turning to “AWVDQTPRTATKETGESLTINCVLRDASFELKDTGWYRTKLGSTNEQSISIGGRYVETVNKGSKSFSLRISDLRVEDSGTYKCQAFYSLLLRDYNYSLLFRGEKGAGTALTVKAAA”, the “soluble on expression in E. coli” value was “soluble”.
As to “CGSSSHETSYGYATLSYADYWAGELGQSRDVLLAGNAEADRAGDLDAGMFDAVSRATHGHGAFRQQFQYAVEVLGEKVLSKQETEDSRGRKKWEYETDPSVTKMVRASASFQDLGEDGEIKFEAVEGAVALADRASSFMVDSEEYKITNVKVHGMKFVPVAVPHELKGIAKEKFHFVEDSRVTENTNGLKTMLTEDSFSARKVSSMESPHDLVVDTVGTGYHSRFGSDAEASVMLKRADGSELSHREFIDYVMNFNTVRYDYYGDDASYTNLMASYGTKHSADSWWKTGRVPRISCGINYGFDRFKGSGPGYYRLTLIANGYRDVVADVRFLPKYEGNIDIGLKGKVLTIGGADAETLMDAAVDVFADGQPKLVSDQAVSLGQNVLSADFTPGTEYTVEVRFKEFGSVRAKVVAQ”, the “soluble on expression in E. coli” value is listed as “soluble”.
For the sequence “CIHSLKSEAIFFERTANFDGNTREKIIAMHVGYRIYARMEPVLSTCAIVAKTPWVLEKASPERLNELNRLEEEVISGADALVNNAVECGDLKFSPAIGADAIVFANWSIAFGSNALAQNASNSRCIQRIQDPFSVLHNANMLLDGLGWAPLSTEWDYRKTWRRVEQELFSEEIAYLETVNR”, the “soluble on expression in E. coli” value was “not soluble”.
Turning to “CKRNVFNPSIPNRTQFIEDPIANLSIPSKDAAIKVTPYTFEGTSGRVYAHVERFFKFNGEYYIIFFRRYIYDTQAGTYAETAPGGNYHLIKIGKSMKYQEVAVNLNQDHPGLYARYTTIAQGNAYIKGSDIYVPINMADLSKGYYQSSSADLSKWTTNNNTALDVAGLGLTKIEVMDTSRITVGKYTYMYNGGGLQFSINRLEDRMRQAAERYETKMVFNEADFNNLHMFDIGMDTDGDNQIDYRMNPTNYIENDTDYSWIGMQTPHQVWIMPFNDGEKDYLIRFVEYCSGMYNINTLKTERDSAKTKADTALTQALALVSNPNSSKAEIAEACYQSIRNNLEYEVRNYFIGKYESVFKTSTPTAYVVPNYALTHYVIEIVDIQ”, the “soluble on expression in E. coli” value is listed as “not soluble”.
The value for “CVTGDTLVFTDKGLIEARKLEVGMKVWSGDGWNEIKEVINNGVKPVLKLKLKTGLEIKVTEEHKIFTGEGWKEAKDLKVGDKLYLPVSYPELDFPVKEENDFYEFLGYFLGDGSLSVSNHVSLHVGNDKELALYFKEKVEKYAGAAYLIERDGQYIIDVHRKEFAEKIKKIFGIEITDSKEKDIPSSLLAVNSEAMKALLRGLFSADGSVYDANGSITVALSSTSYPLLRKVQILLLSLGIPSTLTGEKDQDVKIIKGNEYETLPTYRLIISGERASLFFNKIGLIGEKKKKFLELMAGKTTYSTLNNHLYQEIVSIEPAGEEEVFDITAPPKYTWITNGILSLD” was “soluble”; that for “DADLATGAKVFSANCAACHAGGINLVNAEKTLKKEALEKFGMNSIVAITTQVTNGKAGMPAFKGRLTDDQIAAVAAYVLDQAEKGW” was “soluble”.
The value for “DIIITAGGKNITPAEIESRLKFSHYISDAVIVGDKRKFLTCLIMIDQENVEKFAQDRKVPFSNFASLCAAKEVRELIAAEVAQVNKEFARVEQIKDFRLIDVLLTAEDDELTATMKLKRSFVEKKHAHLIEDMYK” was “soluble”; that for “DKMDGAPSRVLHIRKLPGEVTETEVIALGLPFGKVTNILMLKGKNQAFLELATEEAAITMVNYYSAVTPHLRNQPIYIQYSNHKELKT” was “soluble”.
